What is called Kd is the equilibrium constant for the complex coming apart. In general, koff refers to the rate constant with which the complex falls apart. Usually kon stands for the rate constant with which the complex forms.

The source of these data is patent US20060024297A1 (published 2006).

The target of test [1] is T1, recombinant mouse Tie1-Fc (mouse, UniProt Q06806 23-755, limits assumed).
T1 construct: also called Tie-1 Fc Mouse; not shown: Fc
T1 sequence (looked up): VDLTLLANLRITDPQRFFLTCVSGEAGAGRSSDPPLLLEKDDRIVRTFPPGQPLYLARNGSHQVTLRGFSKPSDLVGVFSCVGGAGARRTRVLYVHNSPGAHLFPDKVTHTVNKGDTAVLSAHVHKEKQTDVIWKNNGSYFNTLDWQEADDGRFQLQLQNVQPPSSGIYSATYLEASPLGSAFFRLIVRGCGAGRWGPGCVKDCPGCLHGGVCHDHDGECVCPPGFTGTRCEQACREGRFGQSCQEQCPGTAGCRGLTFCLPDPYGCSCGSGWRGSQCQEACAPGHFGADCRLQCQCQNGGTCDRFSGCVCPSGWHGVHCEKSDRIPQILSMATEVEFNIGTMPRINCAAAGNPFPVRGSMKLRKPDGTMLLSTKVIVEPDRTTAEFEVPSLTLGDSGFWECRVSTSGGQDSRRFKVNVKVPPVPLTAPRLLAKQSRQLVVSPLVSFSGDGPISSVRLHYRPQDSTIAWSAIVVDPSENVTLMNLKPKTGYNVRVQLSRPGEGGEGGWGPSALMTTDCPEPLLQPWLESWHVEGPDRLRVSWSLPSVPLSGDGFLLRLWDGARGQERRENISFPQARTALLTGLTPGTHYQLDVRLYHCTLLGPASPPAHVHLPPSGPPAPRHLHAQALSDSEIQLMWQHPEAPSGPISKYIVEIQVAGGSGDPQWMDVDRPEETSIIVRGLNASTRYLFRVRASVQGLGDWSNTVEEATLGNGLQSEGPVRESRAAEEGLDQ
Nature of the test: BIAcore, Fab over biotinylated mouse Tie1-Fc on streptavidin chip, 1:1 fit. The protocol:
Mouse Tie 1-Fc antigen (0.5 mg/ml stock) was biotinylated using established procedures and after dilution 1/100 fold in HBS this was then used for capturing to a streptavidin chip. This was coated to a resonance value of 740RU. All analysis was performed in HBS buffer. […] Serial dilutions were made of each Fab preparation to obtain 10 nM, 5 nM, 2.5 nM, and 1.25 nM. For the association phase samples were injected at 30 μl/min for 4 minutes using kinject program. This was followed by a 10 minutes dissociation phase, any remaining sample was stripped from the Tie-1 Fc surface at a flow of 50 μl/min with a single injection of 50 mM NaOH+1 M NaCl for 18 seconds. All samples were run and analyzed in duplicate.
(§1) Sensorgrams were analyzed using the simultaneous ka/kd fitting program with 1:1 model in the BIAEVALUATION™ software 3.1.
(In SPR one partner is held on a chip, and binding of the other changes the refractive index at the surface.)

In test [2] the target is T2, recombinant human Tie1-Fc (Tie1 extracellular domain fused to human Fc) (human, UniProt P35590 25-759).
T2 construct: also called Tie-1 Fc Human; not shown: human Fc
T2 sequence: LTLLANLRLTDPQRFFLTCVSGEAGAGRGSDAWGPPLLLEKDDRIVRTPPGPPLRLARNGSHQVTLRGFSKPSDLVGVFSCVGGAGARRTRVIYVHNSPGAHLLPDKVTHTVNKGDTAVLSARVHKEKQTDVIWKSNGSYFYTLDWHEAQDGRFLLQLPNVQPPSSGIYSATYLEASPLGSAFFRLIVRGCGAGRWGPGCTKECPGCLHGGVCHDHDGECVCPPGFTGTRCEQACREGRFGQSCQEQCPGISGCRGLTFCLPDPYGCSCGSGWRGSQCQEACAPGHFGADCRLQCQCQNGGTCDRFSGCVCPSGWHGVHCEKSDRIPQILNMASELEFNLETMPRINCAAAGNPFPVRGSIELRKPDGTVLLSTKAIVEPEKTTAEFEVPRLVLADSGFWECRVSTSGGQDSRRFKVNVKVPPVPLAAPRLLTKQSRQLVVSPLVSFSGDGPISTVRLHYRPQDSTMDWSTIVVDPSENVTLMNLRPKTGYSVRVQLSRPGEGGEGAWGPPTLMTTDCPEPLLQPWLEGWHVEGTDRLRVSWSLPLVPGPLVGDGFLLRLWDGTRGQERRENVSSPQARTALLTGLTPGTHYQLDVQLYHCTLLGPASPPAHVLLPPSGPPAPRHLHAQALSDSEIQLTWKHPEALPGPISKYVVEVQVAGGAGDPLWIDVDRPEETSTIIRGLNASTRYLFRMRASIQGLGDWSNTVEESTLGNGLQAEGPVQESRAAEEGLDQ
Nature of the test: BIAcore, Fab over biotinylated human Tie1-Fc on streptavidin chip, 1:1 fit. The protocol: Recombinant purified human Tie1-Fc antigen (Stock 2.45 mg/ml) was biotinylated using the EZ-link Sulfo-NHS-SS-Biotin (Pierce, Cat. 21331). The reaction was performed for 2 hours on ice in 50 mM sodium carbonate buffer, pH 9.6, in the presence of a 5-fold molar excess of biotinylating agent and was stopped by the addition of Tris-HCl, pH 7.5 (50 mM final concentration) followed by a 1-hour incubation on ice. Samples were then dialyzed against PBS. The antigen was then diluted 1/100 fold in HBS and was then captured onto a streptavidin chip. This was coated to a density of 830RU (resonance units). All analysis was performed in HBS buffer. […] Serial dilutions were made of each Fab preparation to obtain 10 nM, 5 nM, 2.5 nM, and 1.25 nM solutions. For the association phase samples were injected at 30 μl/min for 4 minutes using kinject program. This was followed by a 10 minutes dissociation phase, any remaining sample was stripped from the Tie-1 Fc surface at a flow of 50 μl/min with a single injection of 5 mM NaOH+1M NaCl for 18 seconds. All samples were run and analyzed in duplicate.
as §1

The target in test [3] is T2, recombinant human Tie1-Fc (Tie1 …). The experiment in a line: BIAcore, Fab over human Tie-1/Fc coupled to CM5 chip, 1:1 fit. The protocol: Recombinant human Tie-1/Fc was coated on a CM5 chip. The surface of the chip was first activated with a 7-minute pulse of 0.05 M NHS/0.2 M EDC, then Tie-1/Fc (2 μg/ml in 10 mM sodium acetate, pH 4.0) was run over the chip surface until 750 RUs were coated on the surface. All flow cells were subsequently deactivated with a 7-minute pulse of 1 M ethanolamine hydrochloride, pH 8.5. All further experiments were performed in HBS buffer.
A series of dilution (50, 25, 12.5, 6.25 and 3.125 nM) was prepared in HBS buffer. Samples were injected at 30 μl/min for 5.3 minutes using the KINJECT™ program. This was followed by a 10-minute dissociation phase, and the remaining Fab was stripped from the surface with a single 18-sec injection of 50 mM NaOH/1 M NaCl.
Sensorgrams were analyzed using the simultaneous ka/kd fitting program from the BIAEVALUATION™ software 3.1 assuming a 1:1 model.

The target in test [4] is T3, human Tie1, full length, V5-tagged (pcDNA3-Tie1-V5), in transiently transfected COS1 cells (human, UniProt P35590 25-1138).
T3 construct: it is not expressly tied to the pcDNA3-Tie1-V5 construct; also called Tie1-transfected; transfected Tie1
The experiment in a line: Western blot, Tie1-V5-transfected COS1. As for the experimental part: (§2) COS1 cells were transfected with pcDNA3-Tie1-V5 (1 μg DNA per 10 cm cell culture plate) using FUGENE 6 (Roche) according to manufacturer's instruction and incubated for 48 h before stimulation. For immunoprecipitation, Tie1 transfected cells and HMVEC cells were lysed in DOC-RIPA lysis buffer (50 mM Tris-HCl pH 8.0, 150 mM NaCl, 1% Triton-X-100, 0.1% SDS, 1% DOC, 10 mM EDTA) supplemented with aprotinin, leupeptin, PMSF and sodium vanadate. Immunoprecipitation was carried out from equal amount of cell lysates by incubating with polyclonal anti-human Tie1 antibodies (R&D), monoclonal anti-V5 antibodies (Invitrogen) or altogether 23 anti-Tie1 antibodies (1μg/ml) for 1 to 2 h followed by incubation with protein G-Sepharose (Amersham Pharmacia Biotech AB) for 1 h. The immunoprecipitates were washed twice with PBS-T and twice with PBS, followed by elution with the Laemmli buffer and separation in 8% SDS-PAGE. The blots were probed with the 23 anti-Tie1 antibodies (5 μg/ml) and subsequently anti-human Fc antibodies conjugated with HRP.
(§3) Next, to find out if the anti-Tie1 antibodies recognize Tie1 in living cells, those cells were studied by immunofluorescence staining.

The target in test [5] is T4, endogenous human Tie1 of primary human endothelial cells (HDMEC/HDMVEC, HUVEC) and human tissues (human, UniProt P35590 25-1138).
T4 construct: also called endogenous Tie1; Tie-1 in HUVEC
Nature of the test: Western blot, HDMEC. As for the experimental part: as §2, §3
(Immunoblotting shows a protein as a band on a membrane.)

Positions count from the first letter of the chain named.

B1: germlined E3 Fab (light chain framework regions germlined to DPK4; heavy chain as parental) (Fab, V domains shown)
VH: EVQLLESGGGLVQPGGSLRLSCAASGFTFSMYGMVWVRQAPGKGLEWVSVISPSGGNTGYADSVKGRFTISRDNSKNTLYLQVNSLRAEDTAVYYCARAPRGYSYGYYYWGQGTLVTVSS
VL: DIQMTQSPSSLSASVGDRVTITCRASQGIGHYLAWYQQKPGKVPKLLIYTASTLQSGVPSRFSGSGSGTDFTLTISSLQPEDVATYYCQQFNSYPHTFGQGTRLEIK
notes: also called germlined Fab E3; E3 germlined
B1: in test [1], the equilibrium dissociation constant (Kd) came out at 3.1 nM, the koff amounted to 0.00104 s⁻¹ and the on-rate constant (kon) was determined as 340000 M⁻¹ s⁻¹. Also, in test [2], the Kd is 3.4 nM, the koff was determined as 0.00102 s⁻¹ and the kon came out at 300000 M⁻¹ s⁻¹.

B2: E3 Fab (parental, soluble Fab) (Fab, V domains shown)
VH: B1 VH
VL: B1 VL with S9L, S76N, E105D
notes: also called parental E3 Fab; parental Fab E3
Consider B2, for which, in test [1], the Kd came to 3.9 nM, the off-rate (koff) amounted to 0.00095 s⁻¹ and the association rate constant (kon) worked out at 246000 M⁻¹ s⁻¹. In addition, in test [2], the Kd was found to be 2 nM, the koff amounted to 0.00061 s⁻¹ and the kon came out at 300000 M⁻¹ s⁻¹. Besides, in test [3], the Kd was 12 nM, the koff was 0.00105 s⁻¹ and the kon was determined as 88100 M⁻¹ s⁻¹.

B3: E3b Fab (germlined heavy chain and germlined light chain of E3) (Fab, V domains shown)
VH: B1 VH with V83M
VL: B1 VL
notes: also called Fab E3b; germlined (E3b)
Consider B3, for which, in test [3], the Kd amounted to 7 nM, the koff was found to be 0.00101 s⁻¹ and the kon came to 136000 M⁻¹ s⁻¹.

B4: P-D12 IgG (anti-Tie1 isolate p-D12, human IgG1) (antibody, V domains shown)
VH: EVQLLESGGGLVQPGGSLRLSCAASGFTFSGYGMHWVRQAPGKGLEWVSVISPSGGQTSYADSVKGRFTISRDNSKNTLYLQMNSLRAEDTAVYYCARDRQYYYGSGSLDYWGQGTLVTVSS
VL: DIQMTQSPSSLSASVGDRVTVTCRASQSISSYLNWYQQKPGKAPKLLIYAASSLQSGVPSRFSGGGSGTDFTLTISSLQPEDFATYFCLQDYKYPWTFGQG
notes: the VL entry stops within FR4
Turning to B4, the binding result in test [4] and in test [5] was “binds” in each case.

B5: P-C6 IgG (anti-Tie1 isolate p-C6, human IgG1) (antibody, V domains shown)
VH: EVQLLESGGGLVQPGGSLRLSCAASGFTFSHYGMTWVRQAPGKGLEWVSVISPSGGQTGYADSVKGRFTISRDNSKNTLYLQMNSLRAEDTAVYYCAGGGYAAFDYWGQGTLVTVSS
VL: DIQMTQSPATLSLSPGERATLSCRASQSVSSYLAWYQQKPGQAPRLLIYDASNRATGIPARFSGSGSGTDFTLTISSLEPEDFAVYYCQQRSNWPLTFGGG
notes: the VL entry stops within FR4
Take B5: the binding result in test [4] and in test [5] was “binds” each time.

B6: P-F4 IgG (anti-Tie1 isolate p-F4, human IgG1) (antibody, V domains shown)
VH: EVQLLESGGGLVQPGGSLRLSCAASGFTFSAYMMSWVRQAPGKGLEWVSSIYPSGGYTYYADSVKGRFTISRDNSKNTLYLQMNSLRAEDTAVYYCARGLRGGPDYWGQGTLVTVSS
VL: DIQMTQSPSTLSAYVGDSVTITCRASQSVRRSLAWYQQRPGKAPKSLIYKASTLETGVPPRFSGSGSGTEFTLTISSLQPEDSAIYYCQQYGSFPLTFGGG
notes: the VL entry stops within FR4
With B6, the binding result in test [4] and in test [5] was “binds” throughout.

B7: P-G3 IgG (anti-Tie1 isolate p-G3, human IgG1) (antibody, V domains shown)
VH: EVQLLESGGGLVQPGGSLRLSCAASGFTFSHYMMVWVRQAPGKGLEWVSSIYPSGGWTYYADSVKGRFTISRDNSKNTLYLQMNSLRAEDTAVYYCARLDYGGNSAYFDYWGQGTLVTVSS
VL: QSVLTQPHSVSASPGKTVTISCTRSSGNIASNFVQWYQQRPGSVPTTVIYEDDRRPSGVPDRFSGSIDSSSNSAFLSISGLKTEDEADYYCQSHDRTTRAWVFGGGTKL
notes: lambda VL entry stops within FR4
Turning to B7, the binding result in test [4] and in test [5] was “binds” throughout.

B8: P-F3 IgG (anti-Tie1 isolate p-F3, human IgG1) (antibody, V domains shown)
VH: EVQLLESGGGLVQPGGSLRLSCAASGFTFSMYGMGWVRQAPGKGLEWVSVISPSGGQTAYADSVKGRFTISRDNSKNTLYLQMNSLRAEDTAVYYCARVALLLGHAFDIWGQGTMVTVSS
VL: DIQMTQSPSTLSASLGDRVTITCRASESISRWLAWYQQKPGKAPKLLMYEASTLESGVPSRFTGTGSGTEFTLTISSLQPDDFATYYCQQRSNWPLTFGGG
notes: the VL entry stops within FR4
Consider B8, for which the binding result in test [4] and in test [5] was “binds” in each case.
